Data reported in publication PMC7615710 (2023).

Columns and labels:
[1] = biological target: T1, ASPP2 C-terminal domain (CTD), tag cleaved (UniProt Q13625 925-1128); test: ITC
T1 chain: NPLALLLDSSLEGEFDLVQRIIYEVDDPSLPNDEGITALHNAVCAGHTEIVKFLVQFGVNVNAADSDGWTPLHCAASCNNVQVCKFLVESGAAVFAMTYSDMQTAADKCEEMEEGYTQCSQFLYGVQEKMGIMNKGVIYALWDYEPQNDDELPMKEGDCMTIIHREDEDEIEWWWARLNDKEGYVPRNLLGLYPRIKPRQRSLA

[2] = biological target: T2, ASPP1 C-terminal domain (CTD), tag cleaved (UniProt Q96KQ4 887-1090); test: ITC
T2 chain: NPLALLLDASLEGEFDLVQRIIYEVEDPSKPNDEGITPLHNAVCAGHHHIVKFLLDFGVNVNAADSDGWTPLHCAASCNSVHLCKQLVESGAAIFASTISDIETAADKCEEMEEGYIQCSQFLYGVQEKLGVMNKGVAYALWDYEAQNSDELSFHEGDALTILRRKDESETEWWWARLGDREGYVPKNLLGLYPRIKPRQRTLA

LPPPKKAPTPPPRRRRTVGL [NS5A PRR peptide of HCV strain JFH-1 (20 aa)]
Kd [1]: 0.0424 µM | Kd [2]: 3.78 µM
